# Measurements published in PMC7026628.
# B1: T31/P8F (structured_RNA)
# RNA 1: GGGAGAUGAAAGUCUCCAGGUCUCUCGGAAA
# RNA 2: UGUUCCGA
# B2: T31/P12 (T31/P8 after GAGA incorporation) (structured_RNA)
# RNA 1: B1 RNA 1
# RNA 2: UGUUCCGAGAGA
# B3: T31/P12 + ddCMP (structured_RNA)
# RNA 1: B1 RNA 1
# RNA 2: UGUUCCGAGAGAC
# modifications: 3'-terminal 2',3'-dideoxy-C on product strand
# How the values were obtained:
# [1] = target: T1, EV71-C 3Dpol WT (Enterovirus 71 strain …, UniProt M4QLY4 1732-2193); assay: fluorescence polarization; 5 mM Mg2+; FP: 50 mM potassium glutamate pH 7.5, 50 mM arginine, 5 mM DTT, 5 mM MgCl2, 30 mM NaCl, 5% glycerol, 25 nM RNA, room temperature, at least 60 min. EC assembly:
# [2] = target: T1, EV71-C 3Dpol WT; assay: crystal structure (1.8 A); five Mg2+; elongation complex; FP: 50 mM potassium glutamate pH 7.5, 50 mM arginine, 5 mM DTT, 5 mM MgCl2, 30 mM NaCl, 5% glycerol, 25 nM RNA, room temperature, at least 60 min. EC assembly:
# [3] = target: T1, EV71-C 3Dpol WT; assay: crystal structure; ddCTP-soaked elongation complex; FP: 50 mM potassium glutamate pH 7.5, 50 mM arginine, 5 mM DTT, 5 mM MgCl2, 30 mM NaCl, 5% glycerol, 25 nM RNA, room temperature, at least 60 min. EC assembly:
binder,measurement,setting,value
B1,Kd,[1],180 nM
B2,binding result,[2],binds
B3,binding result,[3],binds
